Source: paper PMC12343972 (Nature Communications, 2025)

Biological target: T1, Rad50-K173A K174A (Saccharomyces cerevisiae, UniProt P12753 1-1312, K173A;K174A)
T1 sequence: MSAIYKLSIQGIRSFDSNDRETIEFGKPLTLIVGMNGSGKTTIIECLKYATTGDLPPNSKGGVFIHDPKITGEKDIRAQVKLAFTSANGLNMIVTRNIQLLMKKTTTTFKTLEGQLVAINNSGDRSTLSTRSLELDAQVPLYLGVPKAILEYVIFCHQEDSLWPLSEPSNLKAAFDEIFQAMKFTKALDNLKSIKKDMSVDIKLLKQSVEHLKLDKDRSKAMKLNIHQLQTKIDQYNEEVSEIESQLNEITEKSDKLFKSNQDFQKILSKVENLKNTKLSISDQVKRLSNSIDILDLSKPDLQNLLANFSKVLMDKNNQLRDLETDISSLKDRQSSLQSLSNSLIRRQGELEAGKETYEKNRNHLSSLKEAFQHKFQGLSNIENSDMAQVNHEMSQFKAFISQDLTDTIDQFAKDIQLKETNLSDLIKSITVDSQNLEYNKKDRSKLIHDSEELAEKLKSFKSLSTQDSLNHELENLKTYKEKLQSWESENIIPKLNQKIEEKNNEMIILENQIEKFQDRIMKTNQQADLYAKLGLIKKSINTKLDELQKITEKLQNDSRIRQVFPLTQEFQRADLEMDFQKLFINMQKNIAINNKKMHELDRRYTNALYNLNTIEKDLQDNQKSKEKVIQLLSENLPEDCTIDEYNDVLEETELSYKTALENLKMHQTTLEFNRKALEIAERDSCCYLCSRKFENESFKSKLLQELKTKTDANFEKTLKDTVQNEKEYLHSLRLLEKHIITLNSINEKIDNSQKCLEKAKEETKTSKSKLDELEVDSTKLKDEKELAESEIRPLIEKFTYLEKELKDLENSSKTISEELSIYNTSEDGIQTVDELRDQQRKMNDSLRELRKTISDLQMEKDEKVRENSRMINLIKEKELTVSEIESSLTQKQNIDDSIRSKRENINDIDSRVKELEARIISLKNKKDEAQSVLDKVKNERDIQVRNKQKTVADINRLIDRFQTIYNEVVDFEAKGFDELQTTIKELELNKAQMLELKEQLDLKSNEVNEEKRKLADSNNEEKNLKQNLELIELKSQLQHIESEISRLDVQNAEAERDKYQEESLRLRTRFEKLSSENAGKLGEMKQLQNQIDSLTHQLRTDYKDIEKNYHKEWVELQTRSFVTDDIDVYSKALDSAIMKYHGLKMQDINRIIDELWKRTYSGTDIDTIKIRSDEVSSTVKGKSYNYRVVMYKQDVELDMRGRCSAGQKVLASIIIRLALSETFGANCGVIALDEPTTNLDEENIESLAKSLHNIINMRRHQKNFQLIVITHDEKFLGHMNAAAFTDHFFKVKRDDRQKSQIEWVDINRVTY
Assay: EMSA

B1: 83-mer dsDNA (EMSA) (dsDNA)
DNA 1: TTGATAAGAGGTCATTTTTGCGGATGGCTTAGAGCTTAATTGCTGAATCTGGTGCTGTAGCTCAACATGTTTTAAATATGCAA
DNA 2: TTGCATATTTAAAACATGTTGAGCTACAGCACCAGATTCAGCAATTAAGCTCTAAGCCATCCGCAAAAATGACCTCTTATCAA
- binding result: binds
